Measurements reported in the supplement of paper PMC9112550, “Optimization of the antimicrobial peptide Bac7 by deep mutational scanning” (BMC Biology, 2022).

Test system: Escherichia coli TOP10
Assay: shrunken log2 fold change of peptide-encoding DNA abundance (4.5 h post-induction vs induction); higher = less antimicrobial activity (less host growth inhibition)
Settings: time post-induction: 4.5 h; library: site-saturation at positions 5, 18, 19, 20
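Further: peptides expressed intracellularly from a pBAD plasmid library in pooled LB shake-flask culture, induced with 0.3% L-arabinose, DNA abundance read by NGS, three biological replicates, DESeq2 with apeglm shrinkage.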

Row | Sequence | shrunken log2 fold change
1 | RRIRTRPPRLPRPRPRPPTEPRP | 0.498
2 | RRIRYRPPRLPRPRPRPSYGPRP | -0.383
3 | RRIRPRPPRLPRPRPRPSDLPRP | -0.385
4 | RRIRDRPPRLPRPRPRPSGKPRP | -0.24
5 | RRIRTRPPRLPRPRPRPWDNPRP | -0.0778
6 | RRIRVRPPRLPRPRPRPQIGPRP | -0.273
7 | RRIRPRPPRLPRPRPRPNSKPRP | -0.557
8 | RRIRIRPPRLPRPRPRPAGTPRP | -0.108
9 | RRIRVRPPRLPRPRPRPWASPRP | 0.0586
10 | RRIRNRPPRLPRPRPRPVCYPRP | -0.21
11 | RRIRSRPPRLPRPRPRPELVPRP | 0.111
12 | RRIRHRPPRLPRPRPRPNADPRP | 0.031
13 | RRIRTRPPRLPRPRPRPIKNPRP | -0.185
14 | RRIRGRPPRLPRPRPRPNWLPRP | 0.341
15 | RRIRNRPPRLPRPRPRPHSLPRP | -0.117
16 | RRIRLRPPRLPRPRPRPVRMPRP | 0.494
17 | RRIRWRPPRLPRPRPRPHIPPRP | -0.227
18 | RRIRHRPPRLPRPRPRPAIRPRP | -0.000964
19 | RRIRERPPRLPRPRPRPLRNPRP | 0.308
20 | RRIRQRPPRLPRPRPRPPLEPRP | 0.949
21 | RRIRVRPPRLPRPRPRPFQHPRP | -0.131
22 | RRIRGRPPRLPRPRPRPPGLPRP | 0.786
23 | RRIRFRPPRLPRPRPRPSDFPRP | -0.487
24 | RRIRLRPPRLPRPRPRPHMIPRP | -0.672
25 | RRIRRRPPRLPRPRPRPQYCPRP | -0.3

Row | Sequence | shrunken log2 fold change
26 | RRIRGRPPRLPRPRPRPRYSPRP | -0.173
27 | RRIRRRPPRLPRPRPRPHCVPRP | -0.0665
28 | RRIRGRPPRLPRPRPRPFNLPRP | -0.643
29 | RRIRMRPPRLPRPRPRPKFHPRP | -0.174
30 | RRIRTRPPRLPRPRPRPCFGPRP | 0.000833
31 | RRIRIRPPRLPRPRPRPWNIPRP | -0.0297
32 | RRIRERPPRLPRPRPRPFEYPRP | 0.0143
33 | RRIRGRPPRLPRPRPRPCAQPRP | 1.07
34 | RRIRNRPPRLPRPRPRPRVDPRP | 0.0415
35 | RRIRIRPPRLPRPRPRPMKRPRP | 0.0451
36 | RRIRIRPPRLPRPRPRPRICPRP | -0.3
37 | RRIRTRPPRLPRPRPRPQLYPRP | -0.0657
38 | RRIRDRPPRLPRPRPRPSLYPRP | 0.266
39 | RRIRKRPPRLPRPRPRPYEVPRP | -0.205
40 | RRIRDRPPRLPRPRPRPCPDPRP | -0.312
41 | RRIRSRPPRLPRPRPRPFQFPRP | -0.157
42 | RRIRSRPPRLPRPRPRPTASPRP | 0.116
43 | RRIRGRPPRLPRPRPRPYVMPRP | -0.0513
44 | RRIRNRPPRLPRPRPRPHMVPRP | -0.13
45 | RRIRVRPPRLPRPRPRPRPHPRP | 0.351
46 | RRIRTRPPRLPRPRPRPFPKPRP | -0.112
47 | RRIRTRPPRLPRPRPRPINIPRP | -0.208
48 | RRIRRRPPRLPRPRPRPSARPRP | 0.349
49 | RRIRSRPPRLPRPRPRPAVVPRP | -0.0261
50 | RRIRGRPPRLPRPRPRPDLRPRP | 0.0067

Row | Sequence | shrunken log2 fold change
51 | RRIRDRPPRLPRPRPRPDISPRP | 0.0588
52 | RRIRKRPPRLPRPRPRPFAKPRP | 0.0238
53 | RRIRWRPPRLPRPRPRPHWLPRP | 0.243
54 | RRIRERPPRLPRPRPRPHLTPRP | 0.0373
55 | RRIRCRPPRLPRPRPRPVPKPRP | 0.339
56 | RRIRGRPPRLPRPRPRPWKQPRP | 0.152
57 | RRIRARPPRLPRPRPRPQRGPRP | 0.468
58 | RRIRYRPPRLPRPRPRPLMMPRP | -0.692
59 | RRIRTRPPRLPRPRPRPDYIPRP | -0.323
60 | RRIRMRPPRLPRPRPRPDFYPRP | 0.06
61 | RRIRTRPPRLPRPRPRPEWHPRP | 0.0594
62 | RRIRRRPPRLPRPRPRPGTCPRP | -0.087
63 | RRIRFRPPRLPRPRPRPQSNPRP | -0.354
64 | RRIRSRPPRLPRPRPRPNTSPRP | -0.242
65 | RRIRRRPPRLPRPRPRPHSPPRP | 0.252
66 | RRIRMRPPRLPRPRPRPMMGPRP | 0.0255
67 | RRIRGRPPRLPRPRPRPTVQPRP | 0.796
68 | RRIRARPPRLPRPRPRPWKEPRP | 0.00952
69 | RRIRWRPPRLPRPRPRPFKGPRP | -0.0135
70 | RRIRMRPPRLPRPRPRPPWSPRP | 0.596
71 | RRIRQRPPRLPRPRPRPIWEPRP | 0.0296
72 | RRIRERPPRLPRPRPRPGSCPRP | -0.0703
73 | RRIRCRPPRLPRPRPRPFTNPRP | -0.685
74 | RRIRPRPPRLPRPRPRPNTLPRP | -0.468
75 | RRIRWRPPRLPRPRPRPLQDPRP | -0.0523

Row | Sequence | shrunken log2 fold change
76 | RRIRARPPRLPRPRPRPYWNPRP | -0.566
77 | RRIRYRPPRLPRPRPRPMTPPRP | -0.0195
78 | RRIRARPPRLPRPRPRPKTPPRP | 0.903
79 | RRIRIRPPRLPRPRPRPMLPPRP | -0.0228
80 | RRIRCRPPRLPRPRPRPCFGPRP | -0.137
81 | RRIRGRPPRLPRPRPRPFKPPRP | -0.0354
82 | RRIRRRPPRLPRPRPRPGGYPRP | -0.0378
83 | RRIRCRPPRLPRPRPRPHTFPRP | -0.467
84 | RRIRERPPRLPRPRPRPKQNPRP | -0.073
85 | RRIRARPPRLPRPRPRPFIFPRP | 0.419
86 | RRIRWRPPRLPRPRPRPWQQPRP | -0.01
87 | RRIRTRPPRLPRPRPRPMRDPRP | 0.00292
88 | RRIRYRPPRLPRPRPRPRVQPRP | -0.617
89 | RRIRGRPPRLPRPRPRPSICPRP | 0.207
90 | RRIRNRPPRLPRPRPRPLDPPRP | -0.117
91 | RRIRPRPPRLPRPRPRPDLKPRP | -0.0801
92 | RRIRFRPPRLPRPRPRPWFSPRP | -0.0536
93 | RRIRTRPPRLPRPRPRPDVEPRP | 0.053
94 | RRIRGRPPRLPRPRPRPQQKPRP | 0.206
95 | RRIRVRPPRLPRPRPRPQSFPRP | -0.111
96 | RRIRSRPPRLPRPRPRPMAPPRP | 0.257
97 | RRIRWRPPRLPRPRPRPWPKPRP | 0.322
98 | RRIRCRPPRLPRPRPRPMKTPRP | -0.11
99 | RRIRYRPPRLPRPRPRPQAEPRP | -0.0183
100 | RRIRNRPPRLPRPRPRPNATPRP | -0.185

Row | Sequence | shrunken log2 fold change
101 | RRIRHRPPRLPRPRPRPGPAPRP | 0.871
102 | RRIRTRPPRLPRPRPRPVDFPRP | 0.231
103 | RRIRRRPPRLPRPRPRPPWMPRP | 0.269
104 | RRIRERPPRLPRPRPRPSHWPRP | -0.292
105 | RRIRNRPPRLPRPRPRPPFWPRP | 0.196
106 | RRIRHRPPRLPRPRPRPCQMPRP | -0.0239
107 | RRIRDRPPRLPRPRPRPKHKPRP | -0.173
108 | RRIRFRPPRLPRPRPRPYELPRP | 0.0447
109 | RRIRKRPPRLPRPRPRPDLNPRP | 0.332
110 | RRIRQRPPRLPRPRPRPYGKPRP | -0.217
111 | RRIRDRPPRLPRPRPRPNGWPRP | 0.612
112 | RRIRRRPPRLPRPRPRPGYRPRP | -0.119
113 | RRIRLRPPRLPRPRPRPKHIPRP | -0.241
114 | RRIRARPPRLPRPRPRPHRFPRP | -0.176
115 | RRIRVRPPRLPRPRPRPPFDPRP | 0.199
116 | RRIRTRPPRLPRPRPRPAIIPRP | -0.233
117 | RRIRPRPPRLPRPRPRPDSFPRP | -0.0889
118 | RRIRMRPPRLPRPRPRPQTGPRP | -0.0549
119 | RRIRQRPPRLPRPRPRPNDGPRP | -0.000777
120 | RRIRSRPPRLPRPRPRPYMQPRP | -0.145
121 | RRIRFRPPRLPRPRPRPVCTPRP | -0.324
122 | RRIRERPPRLPRPRPRPMISPRP | -0.11
123 | RRIRDRPPRLPRPRPRPKLVPRP | 0.0305
124 | RRIRQRPPRLPRPRPRPWQPPRP | -0.00999
125 | RRIRKRPPRLPRPRPRPQCTPRP | -0.0504
